The record followed here is patent US20200131474A1, “METHODS AND COMPOSITIONS FOR OCULAR CELL THERAPY” (Novartis AG, priority 2018, published 2020).

Data set [1] relates to genomic DNA purified from male human peripheral blood mononuclear cells. Description: Biochemical method for potential off-target genomic sites cleaved by Cas9 and B2M guides. The note with it: guide concentration of 64 nM. From the text: A biochemical method (See, e.g., Cameron et al., Nature Methods. 6, 600-606; 2017) was used to determine potential off-target genomic sites cleaved by Cas9 and selected B2M guides.

For data set [2], the system named is potential off-target sites. Nature of the data set: Off-target activity detection in limbal stem cells by targeted PCR and NGS. The class given is cell-based, human. Particulars: edited LSCs vs non-edited PBMCs; positive sites of sequenced loci. As to the method:
Potential CRISPR/Cas9-mediated cutting sites identified above were evaluated using targeted PCR and NGS in genome-edited expanded LSCs.
Selected sgRNAs (SEQ ID NO: 120, 162, 166, 167, 171, and 175) were further analyzed by amplicon sequencing in edited and non-edited cells. Primers flanking the potential off-target sites for each guide were used to detect indels by NGS analysis in edited LSCs and non-edited peripheral blood mononuclear cells. Sites that had either (1) a difference in mean indel percentage between edited and unedited cells greater than 0.5%; or (2) a p value less than 0.05 between edited and unedited indel were further analyzed. NGS sequence reads for such sites were assessed for characteristic indel patterns near the putative Cas9 cut site.

B1: CR000453: gRNA targeting B2M; targeting domain CACAGCCCAAGAUAGUUAAG (SEQ ID NO: 137); sgRNA SEQ ID NO: 174 (nucleic acid)
guide: CACAGCCCAAGAUAGUUAAGGUUUUAGAGCUAGAAAUAGCAAGUUAAAAUAAGGCUAGUCCGUUAUCAACUUGAAAAAGUGGCACCGAGUCGGUGCUUUU
modifications: listed as RNA, chemistry not given here
On to B1, for which, in data set [1], the “off-target Site_Count” value is 82.

B2: 6-HEYJA000001: gRNA targeting B2M; targeting domain GGCCGAGAUGUCUCGCUCCG (SEQ ID NO: 113); sgRNA SEQ ID NO: 164 (nucleic acid)
guide: GGCCGAGAUGUCUCGCUCCGGUUUUAGAGCUAGAAAUAGCAAGUUAAAAUAAGGCUAGUCCGUUAUCAACUUGAAAAAGUGGCACCGAGUCGGUGCUUUU
modifications: listed as RNA, chemistry not given here
As to B2, the “off-target Site_Count” value in data set [1] is on record as 8.

B3: 9-HEYJA000005: gRNA targeting B2M; targeting domain UCACGUCAUCCAGCAGAGAA (SEQ ID NO: 116); sgRNA SEQ ID NO: 167 (nucleic acid)
guide: UCACGUCAUCCAGCAGAGAAGUUUUAGAGCUAGAAAUAGCAAGUUAAAAUAAGGCUAGUCCGUUAUCAACUUGAAAAAGUGGCACCGAGUCGGUGCUUUU
modifications: listed as RNA, chemistry not given here
On to B3, for which, in data set [1], the “off-target Site_Count” value was 35. In addition, in data set [2], the “Number of sites positive for off-target activity in LSCs” value (shortened to “Number of sites positive”) is recorded as “zero”.

B4: CR000442: gRNA targeting B2M; targeting domain GGCCACGGAGCGAGACAUCU (SEQ ID NO: 134); sgRNA SEQ ID NO: 171 (nucleic acid)
guide: GGCCACGGAGCGAGACAUCUGUUUUAGAGCUAGAAAUAGCAAGUUAAAAUAAGGCUAGUCCGUUAUCAACUUGAAAAAGUGGCACCGAGUCGGUGCUUUU
modifications: listed as RNA, chemistry not given here
Turning to B4, the “off-target Site_Count” value in data set [1] is given as 29. In addition, the “Number of sites positive” value in data set [2] is “zero”.

B5: CR000455: gRNA targeting B2M; targeting domain UUACCCCACUUAACUAUCUU (SEQ ID NO: 138); sgRNA SEQ ID NO: 175 (nucleic acid)
guide: UUACCCCACUUAACUAUCUUGUUUUAGAGCUAGAAAUAGCAAGUUAAAAUAAGGCUAGUCCGUUAUCAACUUGAAAAAGUGGCACCGAGUCGGUGCUUUU
modifications: listed as RNA, chemistry not given here
Take B5: the “off-target Site_Count” value in data set [1] came out at 48. Also, in data set [2], the “Number of sites positive” value is recorded as “zero”.

B6: 4-CR004366: gRNA targeting B2M (Dharmacon); targeting domain CAGUAAGUCAACUUCAAUGU (SEQ ID NO: 111); sgRNA SEQ ID NO: 162 (nucleic acid)
guide: CAGUAAGUCAACUUCAAUGUGUUUUAGAGCUAGAAAUAGCAAGUUAAAAUAAGGCUAGUCCGUUAUCAACUUGAAAAAGUGGCACCGAGUCGGUGCUUUU
modifications: listed as RNA, chemistry not given here
Regarding B6, in data set [1], the “off-target Site_Count” value was 92. Moreover, the “Number of sites positive” value in data set [2] is recorded as “zero”.

B7: 8-HEYJA000004: gRNA targeting B2M; targeting domain ACUCACGCUGGAUAGCCUCC (SEQ ID NO: 115 in Table 10, 118 in Table 4); sgRNA SEQ ID NO: 166 (nucleic acid)
guide: ACUCACGCUGGAUAGCCUCCGUUUUAGAGCUAGAAAUAGCAAGUUAAAAUAAGGCUAGUCCGUUAUCAACUUGAAAAAGUGGCACCGAGUCGGUGCUUUU
modifications: listed as RNA, chemistry not given here
Turning to B7, in data set [1], the “off-target Site_Count” value came to 62. Further, the “Number of sites positive” value in data set [2] is “zero”.

B8: CR000456: gRNA targeting B2M; targeting domain CUUACCCCACUUAACUAUCU (SEQ ID NO: 139); sgRNA SEQ ID NO: 176 (nucleic acid)
guide: CUUACCCCACUUAACUAUCUGUUUUAGAGCUAGAAAUAGCAAGUUAAAAUAAGGCUAGUCCGUUAUCAACUUGAAAAAGUGGCACCGAGUCGGUGCUUUU
modifications: listed as RNA, chemistry not given here
As for B8, in data set [1], the “off-target Site_Count” value was 66.

B9: CR000446: gRNA targeting B2M; targeting domain AGGGUAGGAGAGACUCACGC (SEQ ID NO: 136); sgRNA SEQ ID NO: 173 (nucleic acid)
guide: AGGGUAGGAGAGACUCACGCGUUUUAGAGCUAGAAAUAGCAAGUUAAAAUAAGGCUAGUCCGUUAUCAACUUGAAAAAGUGGCACCGAGUCGGUGCUUUU
modifications: listed as RNA, chemistry not given here
In the case of B9, the “off-target Site_Count” value in data set [1] came out at 98.

B10: CR000443: gRNA targeting B2M; targeting domain CGCGAGCACAGCUAAGGCCA (SEQ ID NO: 135); sgRNA SEQ ID NO: 172 (nucleic acid)
guide: CGCGAGCACAGCUAAGGCCAGUUUUAGAGCUAGAAAUAGCAAGUUAAAAUAAGGCUAGUCCGUUAUCAACUUGAAAAAGUGGCACCGAGUCGGUGCUUUU
modifications: listed as RNA, chemistry not given here
B10: in data set [1], the “off-target Site_Count” value came to 117.
